{"source": "patent US10052415B2", "about": "“Tropoelastin for promoting endothelial cell adhesion or migration” (University of Utah Research Foundation, priority 2005, dated 2018)", "type_in_all_cases": "cell-based", "key": {"[1]": {"tested_on": "human microvessel endothelial cells (HMVEC)", "assay": "Adhesion assay on coated stainless steel disks, HMVEC", "conditions": "FIG. 6", "source_text": "Given that an important aspect of the present invention is the prevention of restenosis and thrombosis, we conducted experiments to address whether endothelial cells would adhere to metal devices that had been coated with tropoelastin. Briefly, tropoelastin was covalently conjugated to a stainless steel disk approximately 6 mm in diameter. Tropoelastin was linked to the disk surface using an intermediate polysaccharide molecule. An exemplary process for covalently linking tropoelastin to the disk surface, and the process used here, is used in the manufacture of Genous Bio-Engineered R Stents. These disks provided ample surface area for microscopic imaging. Disks were also similarly coated with anti-CD34 antibody and with polysaccharide vehicle alone. Stents coated with anti-CD34 antibody using a similar process (Genous Bio-Engineered R Stents) are currently in human clinical trials and have promise to promote capture of circulating endothelial cells and endothelial progenitor cells and to accelerate endothelialization.\nHuman microvessel endothelial cells (HMVEC) were cultured with these coated disks, and adhesion of the cells to the coated disks was assayed. […]"}, "[2]": {"tested_on": "human aortic endothelial cells (HuAEC)", "assay": "Cell adhesion assay on coated culture plates, HuAEC", "description": "Cells were plated on culture plates coated with either 0.1% BSA (as a control), 10 ug/ml fibronectin (FN), or 10 ug/ml recombinant tropoelastin, and assayed for adherence to the coated substrate.\n96-well plates were coated in duplicate overnight at 4° C. with 10 μg/ml collagen, fibronectin, tropoelastin, or 0.1% bovine serum albumin (BSA). Cells were harvested with 0.25% trypsin/1 mM EDTA, washed three times in adhesion buffer (0.5% BSA in basal medium), suspended at a working density of 5×10^5/ml in adhesion buffer, and then allowed to recover for 1 h at 37° C. (5% CO2). For integrin-blocking assays, 25 μg/ml anti-integrin antibodies (Chemicon, Temecula, Calif.) or control IgG (Jackson ImmunoResearch Laboratories, Inc, West Grove, Pa.) were added to the cell suspension during the recovery period. During the cell recovery, the coated 96-well plates were washed twice in dPBS and blocked for 1 h at 25° C. in 5.0% BSA (dPBS). The blocking solution was removed, and the wells were washed twice in dPBS. Recovered cells were added to the coated wells in a volume of 100 μl per well and placed at 37° C. for 30 minutes (5% CO2). Following this incubation, the assay plate was inverted and assay wells were washed twice with 100 μl dPBS to remove non-specifically adhered cells. The wells were then fixed in Zamboni fixative, stained with Gill 1 hematoxylin, and overlayed with 80% glycerol. The assay was imaged at 100× magnification, capturing 3 random fields/well on a Zeiss Axiovert 200 inverted microscope equipped with a Zeiss Axiocam digital camera. Readings represent the number of adherent cells/well (average six high powered 100× fields, three taken from each of two separate wells)."}, "[3]": {"tested_on": "human aortic endothelial cells (HuAEC)", "assay": "Boyden chamber migration assay, HuAEC", "conditions": "FIG. 3", "description": "Migration of HuAECs to BSA, fibronectin, and recombinant tropoelastin was measured.\nWe assayed the hexamer VGVAPG (SEQ ID No. 5). This hexameric sequence is repeated multiple times within the full length tropoelastin protein. […] We additionally assayed a 17 residue C-terminal fragment of the tropoelastin protein. This 17 amino acid residue is depicted in SEQ ID NO: 6 (IFPGGACLGKACGRKRK).\nBriefly, 16 h before the assay, 70% confluent 75 cm^2 flasks of human melanoma A2058 cell (ATCC, passage 3-12) or human aortic endothelial cells (HAEC; Cambrex, passage 4-7) were kept in basal media (dMEM+0.1% BSA, or EBM-2+1% FCS, respectively). Cells were lifted with 0.25% Trypsin/1 mM EDTA, diluted in 0.5% BSA (dMEM) and washed 3 times in basal media (dMEM+0.1% BSA) or (EBM-2+0.1% FCS,) and recovered in suspension at working density (2×10^6/ml for A2058 or 1.5×10^6 HAEC) for 1 h at 37° C. (5% CO2). For migration-inhibition assays, the cells were preincubated during the recovery period for 30 minutes in 25 μg/ml anti-integrin antibodies (Chemicon, Temecula, Calif.) or control IgG (Jackson ImmunoResearch, Inc.). All migration assays were performed in triplicate in a 48-well Boyden chamber apparatus (NeuroProbe, Cabin John, Md.). The recovered cells were added to the bottom chambers in a volume of 30 μl. The wells were overlayed with an 8 μm-pore polycarbonate membrane (NeuroProbe, Cabin John, Md.) and coated with 100 μg/ml Rat tail collagen (Trevigen, Gaithersburg, Md.) for A2058 cells or acetylated 1% gelatin from porcine skin (Sigma, St. Louis, Mo.) for HAEC. The apparatus was assembled and stored inverted at 37° C. (5 CO2) for a 2 h adhesion-period. The apparatus was re-inverted and 52 μl of the chemoattractants, 10 mg/ml Fibronectin, 200 ng/ml Tropoelastin, 10 μM elastin-derived peptides; VGVAPG (SEQ ID No. 5), and IFPGGACLGKACGRKRK (SEQ ID No. 6 (Cterm peptide) or 0.1% BSA/dMEM (diluent, random migration control), were added to the upper chambers and the migration was allowed to proceed for 2 h in a humidified incubator at 37° C. (5% CO2). The membranes were then removed, fixed in methanol, stained with a Hema 3 stain set (Fisher Scientific, Pittsburgh, Pa.) and mounted migrated-side down to a 50×75 mm glass slide. Before 90% mounting medium (in xylenes) was applied, the non-migrated cells were removed from the exposed, non-migrated face of the membrane with a moistened swab. Readings represent the number of cells migrating through the membrane (the sum of two high power X 20 fields/well, averaged for each sextuplicate-well set)."}}, "data": [{"molecule": "tropoelastin: recombinant human tropoelastin lacking native signal sequence, 10× His tag and Factor Xa site on N-terminus, 706 amino acid residues (SEQ ID NO: 4) (protein, listed as Homo sapiens) MGHHHHHHHHHHSSGGIEGRGGVPGAIPGGVPGGVFYPGAGLGALGGGALGPGGKPLKPVPGGLAGAGLGAGLGAFPAVTFPGALVPGGVADAAAAYKAAKAGAGLGGVPGVGGLGVSAGAVVPQPGAGVKPGKVPGVGLPGVYPGGVLPGARFPGVGVLPGVPTGAGVKPKAPGVGGAFAGIPGVGPFGGPQPGVPLGYPIKAPKLPGGYGLPYTTGKLPYGYGPGGVAGAAGKAGYPTGTGVGPQAAAAAAAKAAAKFGAGAAGVLPGVGGAGVPGVPGAIPGIGGIAGVGTPAAAAAAAAAAKAAKYGAAAGLVPGGPGFGPGVVGVPGAGVPGVGVPGAGIPVVPGAGIPGAAVPGVVSPEAAAKAAAKAAKYGARPGVGVGGIPTYGVGAGGFPGFGVGVGGIPGVAGVPGVGGVPGVGGVPGVGISPEAQAAAAAKAAKYGVGTPAAAAAKAAAKAAQFALLNLAGLVPGVGVAPGVGVAPGVGVAPGVGLAPGVGVAPGVGVAPGVGVAPGIGPGGVAAAAKSAAKVAAKAQLRAAAGLGAGIPGLGVGVGVPGLGVGAGVPGLGVGAGVPGFGAVPGALAAAKAAKYGAAVPGVLGGLGALGGVGIPGGVVGAGPAAAAAAAKAAAKAAQFGLVGAAGLGGLGVGGLGVPGVGGLGGIPPAAAAKAAKYGVAARPGFGLSPIFPGGACLGKACGRKRK", "values": [{"measurement": "HMVEC adhesion to coated disks relative to anti-CD34 antibody coated disks", "setting": "[1]", "result": "comparable to the adhesion of HMVECs to stainless steel disks coated with an anti-CD34 antibody"}, {"measurement": "adhesion of HMVEC to coated stainless steel disks", "setting": "[1]; protein covalently conjugated to 6 mm disk", "result": "promoted adhesion of human endothelial cells to a metal device"}, {"measurement": "HuAEC adhesion, number of cells bound/well, relative to other coats", "setting": "[2]; FIG. 2, coated wells", "result": "comparable to that observed with fibronectin or collagen"}, {"measurement": "adhesion of HuAEC to the coated substrate", "setting": "[2]; culture plates coated with 10 ug/ml protein, 0.1% BSA control", "result": "adhered to tropoelastin"}, {"measurement": "level of HuAEC migration relative to comparator", "setting": "[3]", "result": "comparable to that of fibronectin"}, {"measurement": "migration of HuAECs", "setting": "[3]; 200 ng/ml Tropoelastin, 10 μM peptides, BSA control", "result": "promoted endothelial cell migration"}]}]}
